In patent US20140147868A1 one finds ELISA (absorbance units) (absorbance units) data, which are given here for six molecules.

Positions of bridges follow the written chain, without caps; N, C: chain ends. No end group written: not given here.

First the molecules themselves.
B1: phagemid CS1-2p (phage-displayed disulfide cyclized 13 mer peptide) (peptide)
peptide: CSLFYLWDQDRCS
modifications: disulfide 1-12 (inferred); also: displayed on phage (phagemid), coat fusion not given here
B2: phagemid CS1-31p (phage-displayed disulfide cyclized 13 mer peptide) (peptide)
peptide: CSFFYSLCYCWCS
modifications: disulfide (positions not given here); also: four Cys, disulfide pairing not given here

The target of the first test is unrelated control antibody. The test is described as follows: phage ELISA, coated control mAb, 10^8 phagemid per well. For orientation: ELISA stands for enzyme-linked immunosorbent assay.
On to CSFRYQWDMFRCS (disulfide 1-12 (inferred); also: displayed on phage (phagemid)) [phagemid CS1-11p (phage-displayed disulfide cyclized 13 mer peptide)], for which the ELISA (absorbance units) (absorbance units) is 0.252.
Same read-out and setting: the figure for B1 is 0.188.
On the same count and under the same terms, the figure for CSGLYPWDMFRCS (disulfide 1-12 (inferred); also: displayed on phage (phagemid)) [phagemid CS1-9p (phage-displayed disulfide cyclized 13 mer peptide)] is 0.209; for CSGLYPWDYFMCS (disulfide 1-12 (inferred); also: displayed on phage (phagemid)) [phagemid CS1-29p (phage-displayed disulfide cyclized 13 mer peptide)] it is 0.125; for B2 it is 0.116.
Still for that read-out and setting: the value for CSFRYLWDQDRCS (disulfide 1-12 (inferred); also: displayed on phage (phagemid)) [phagemid CS1-6p (phage-displayed disulfide cyclized 13 mer peptide)] was 0.173.

For the next test, the target named is bovine serum albumin (bovine) (UniProt P02769). In words: phage ELISA, BSA only, 10^9 phagemid per well.
Chain of bovine serum albumin (bovine) (P02769 25-607 limits assumed): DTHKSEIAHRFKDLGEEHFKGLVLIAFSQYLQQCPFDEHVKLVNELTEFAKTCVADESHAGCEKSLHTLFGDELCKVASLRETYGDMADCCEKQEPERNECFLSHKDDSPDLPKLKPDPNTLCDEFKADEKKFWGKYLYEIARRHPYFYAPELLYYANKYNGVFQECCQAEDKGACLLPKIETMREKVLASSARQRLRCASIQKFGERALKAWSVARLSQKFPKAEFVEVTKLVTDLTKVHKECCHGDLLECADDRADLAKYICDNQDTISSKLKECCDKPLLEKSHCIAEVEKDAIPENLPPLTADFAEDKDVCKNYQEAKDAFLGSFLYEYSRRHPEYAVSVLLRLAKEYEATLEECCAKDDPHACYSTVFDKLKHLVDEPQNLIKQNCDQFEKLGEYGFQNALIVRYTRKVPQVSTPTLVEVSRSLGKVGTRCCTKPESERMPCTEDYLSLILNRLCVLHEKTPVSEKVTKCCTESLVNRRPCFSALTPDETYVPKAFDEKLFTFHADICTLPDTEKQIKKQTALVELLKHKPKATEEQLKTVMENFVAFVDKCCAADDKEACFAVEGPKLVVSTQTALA
The molecule CSFRYQWDMFRCS (disulfide 1-12 (inferred); also: displayed on phage (phagemid)) [phagemid CS1-11p (phage-displayed disulfide cyclized 13 mer peptide)] came in with an ELISA (absorbance units) (absorbance units) of 0.278.
Same read-out and setting: the value for B1 was 0.277; that for CSGLYPWDMFRCS (disulfide 1-12 (inferred); also: displayed on phage (phagemid)) [phagemid CS1-9p (phage-displayed disulfide cyclized 13 mer peptide)] was 0.22; that for CSGLYPWDYFMCS (disulfide 1-12 (inferred); also: displayed on phage (phagemid)) [phagemid CS1-29p (phage-displayed disulfide cyclized 13 mer peptide)] was 0.147.
Turning to B2, the ELISA (absorbance units) (absorbance units) was 0.114.
Still for that read-out and setting: the value for CSFRYLWDQDRCS (disulfide 1-12 (inferred); also: displayed on phage (phagemid)) [phagemid CS1-6p (phage-displayed disulfide cyclized 13 mer peptide)] was 0.27.

For the next test the target is unchanged. The test is described as follows: phage ELISA, BSA only, 10^8 phagemid per well.
Take CSFRYQWDMFRCS (disulfide 1-12 (inferred); also: displayed on phage (phagemid)) [phagemid CS1-11p (phage-displayed disulfide cyclized 13 mer peptide)]: the ELISA (absorbance units) (absorbance units) is 0.268.
Still for that read-out and setting: the figure for B1 is 0.264; for CSGLYPWDMFRCS (disulfide 1-12 (inferred); also: displayed on phage (phagemid)) [phagemid CS1-9p (phage-displayed disulfide cyclized 13 mer peptide)] it is 0.216; for CSGLYPWDYFMCS (disulfide 1-12 (inferred); also: displayed on phage (phagemid)) [phagemid CS1-29p (phage-displayed disulfide cyclized 13 mer peptide)] it is 0.127.
Still for that read-out and setting: the figure for B2 is 0.109.
The same measure, in the same setting: the value for CSFRYLWDQDRCS (disulfide 1-12 (inferred); also: displayed on phage (phagemid)) [phagemid CS1-6p (phage-displayed disulfide cyclized 13 mer peptide)] was 0.254.

A further test has the same target. In words: phage ELISA, BSA only, 10^10 phagemid per well.
As for CSFRYQWDMFRCS (disulfide 1-12 (inferred); also: displayed on phage (phagemid)) [phagemid CS1-11p (phage-displayed disulfide cyclized 13 mer peptide)], the ELISA (absorbance units) (absorbance units) is 0.304.
Still for that read-out and setting: the value for B1 was 0.327; that for CSGLYPWDMFRCS (disulfide 1-12 (inferred); also: displayed on phage (phagemid)) [phagemid CS1-9p (phage-displayed disulfide cyclized 13 mer peptide)] was 0.221.
Same read-out and setting: the figure for CSGLYPWDYFMCS (disulfide 1-12 (inferred); also: displayed on phage (phagemid)) [phagemid CS1-29p (phage-displayed disulfide cyclized 13 mer peptide)] is 0.141; for B2 it is 0.112; for CSFRYLWDQDRCS (disulfide 1-12 (inferred); also: displayed on phage (phagemid)) [phagemid CS1-6p (phage-displayed disulfide cyclized 13 mer peptide)] it is 0.275.

Another test has as its target unrelated control antibody. The test is described as follows: phage ELISA, coated control mAb, 10^9 phagemid per well.
Molecule CSFRYQWDMFRCS (disulfide 1-12 (inferred); also: displayed on phage (phagemid)) [phagemid CS1-11p (phage-displayed disulfide cyclized 13 mer peptide)] returned an ELISA (absorbance units) (absorbance units) of 0.258.
The same measure, in the same setting: the figure for B1 is 0.199; for CSGLYPWDMFRCS (disulfide 1-12 (inferred); also: displayed on phage (phagemid)) [phagemid CS1-9p (phage-displayed disulfide cyclized 13 mer peptide)] it is 0.204; for CSGLYPWDYFMCS (disulfide 1-12 (inferred); also: displayed on phage (phagemid)) [phagemid CS1-29p (phage-displayed disulfide cyclized 13 mer peptide)] it is 0.136.
Same read-out and setting: the figure for B2 is 0.118; for CSFRYLWDQDRCS (disulfide 1-12 (inferred); also: displayed on phage (phagemid)) [phagemid CS1-6p (phage-displayed disulfide cyclized 13 mer peptide)] it is 0.172.

Another test deals with unrelated control antibody. The test is described as follows: phage ELISA, coated control mAb, 10^10 phagemid per well.
For the molecule CSFRYQWDMFRCS (disulfide 1-12 (inferred); also: displayed on phage (phagemid)) [phagemid CS1-11p (phage-displayed disulfide cyclized 13 mer peptide)], the ELISA (absorbance units) (absorbance units) came out at 0.242.
The same measure, in the same setting: the value for B1 was 0.228; that for CSGLYPWDMFRCS (disulfide 1-12 (inferred); also: displayed on phage (phagemid)) [phagemid CS1-9p (phage-displayed disulfide cyclized 13 mer peptide)] was 0.213.
The same measure, in the same setting: the value for CSGLYPWDYFMCS (disulfide 1-12 (inferred); also: displayed on phage (phagemid)) [phagemid CS1-29p (phage-displayed disulfide cyclized 13 mer peptide)] was 0.148; that for B2 was 0.125.
On the same count and under the same terms, the value for CSFRYLWDQDRCS (disulfide 1-12 (inferred); also: displayed on phage (phagemid)) [phagemid CS1-6p (phage-displayed disulfide cyclized 13 mer peptide)] was 0.203.
